Reference: patent US20240076396A1 (Regeneron, published 2024)

What was measured:
[1] = molecular target: T1, human GITR expressed on the cell surface (human, UniProt Q9Y5U5 26-241); experiment: cell-based or functional assay
T1 sequence: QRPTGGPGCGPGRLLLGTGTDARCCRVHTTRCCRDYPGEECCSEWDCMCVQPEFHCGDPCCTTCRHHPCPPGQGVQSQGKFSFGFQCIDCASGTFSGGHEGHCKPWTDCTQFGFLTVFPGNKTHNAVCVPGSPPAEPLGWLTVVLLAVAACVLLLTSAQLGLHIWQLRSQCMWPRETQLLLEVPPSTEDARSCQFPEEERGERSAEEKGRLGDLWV

[2] = molecular target: T2, hGITR.mFc (dimeric recombinant human GITR ectodomain protein, mouse Fc fusion) (human); experiment: SPR Biacore T-200; purified antibody captured on anti-human Fc; 5 nM hGITR.mFc
T2 construct: also called dimeric human GITR; dimeric GITR
T2 chain: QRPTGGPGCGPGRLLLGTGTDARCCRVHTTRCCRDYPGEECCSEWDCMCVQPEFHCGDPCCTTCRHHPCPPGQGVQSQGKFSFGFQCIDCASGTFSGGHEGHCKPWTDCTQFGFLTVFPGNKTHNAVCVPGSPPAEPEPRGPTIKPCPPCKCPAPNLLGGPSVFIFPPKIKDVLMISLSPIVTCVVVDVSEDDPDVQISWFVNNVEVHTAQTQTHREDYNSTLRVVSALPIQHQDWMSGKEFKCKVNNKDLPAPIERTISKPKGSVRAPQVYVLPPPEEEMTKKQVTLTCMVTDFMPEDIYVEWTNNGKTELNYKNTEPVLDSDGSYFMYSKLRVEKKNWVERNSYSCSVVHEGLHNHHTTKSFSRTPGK
Method: (§1) For purified antibodies, Biacore experiments were performed as follows. Using a Biacore T-200 instrument, antibodies were captured for 30 seconds at a flow rate of 8 uL/min on a CM5 anti-humanFc-coupled surface. Approximately 120 RU of each antibody were captured. 10 nM hGITR.mmH (soluble monomeric hGITR, SEQ ID NO: 45) or 5 nM hGITR.mFc (dimeric Macaca fasicularis GITR, SEQ ID NO: 46) were injected over this surface for 5 minutes at a flow rate of 50 uL/min. Dissociation was measured for 10 min. The KD and t_{1/2} were calculated by fitting the double-referenced sensorgrams to a 1:1 binding model.

[3] = molecular target: T3, hGITR.mmH (soluble monomeric recombinant human GITR ectodomain protein) (human); experiment: SPR Biacore T-200; purified antibody captured on anti-human Fc; 10 nM hGITR.mmH
T3 construct: also called monomeric human GITR
T3 chain: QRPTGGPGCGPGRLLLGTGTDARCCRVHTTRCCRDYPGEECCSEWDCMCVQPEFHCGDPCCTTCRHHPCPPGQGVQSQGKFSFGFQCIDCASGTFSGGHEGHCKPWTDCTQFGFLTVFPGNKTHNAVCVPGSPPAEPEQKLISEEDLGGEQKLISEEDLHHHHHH
Method: as §1

[4] = molecular target: T2, hGITR.mFc (dimeric recombinant human …); experiment: SPR Biacore 2000 25C; CHOt supernatant antibody captured on anti-human Fc; 50 nM hGITR.mFc
Method: (§2) Biacore experiments for antibodies secreted in conditioned culture medium were performed as follows. Using a Biacore 2000 instrument at 25° C., antibodies were captured for 80 seconds at a flow rate of 8 uL/min on a CM5 anti-humanFc-coupled surface. Approximately 1000-2000 RU of each antibody were captured. 100 nM hGITR.mmH (soluble monomeric hGITR, SEQ ID NO: 45) or 50 nM hGITR.mFc (dimeric Macaca fasicularis GITR, SEQ ID NO: 46) were injected over this surface for 2 minutes at a flow rate of 50 uL/min. Dissociation was measured for 2 minutes. The KD and t_{1/2} were calculated by fitting the double-referenced sensorgrams to a 1:1 binding model.

[5] = molecular target: T3, hGITR.mmH (soluble monomeric …); experiment: SPR Biacore 2000 25C; CHOt supernatant antibody captured on anti-human Fc; 100 nM hGITR.mmH
Method: as §2

[6] = molecular target: T4, cynomolgus monkey GITR expressed on the cell surface (Macaca fascicularis (cynomolgus monkey)); experiment: flow cytometry, AF647-conjugated antibody on CD4+ CD69+ cynomolgus monkey primary T cells, donor 58945
T4 construct: whole, on cells; also called MfGITR; Jurkat/hCD20/MfGITR cells
Method: FIG. 7 depicts antibody binding to CD69+ cynomolgus monkey primary T-cells. Primary cynomolgus monkey T-cells from 4 separate donors were stimulated in vitro with anti-CD2/anti-CD3/anti-CD28-coated beads. Cell-surface binding of AF647-conjugated mAb1 and AF647-conjugated IgG1 isotype control at a range of concentrations (8 pM to 200 nM) on CD69⁺ and CD69⁻ cynomolgus monkey primary CD4⁺ and CD8⁺ T-cells was detected using flow cytometry. Fluorescence intensity was plotted as geometric MFI. Mf, Macaca fascicularis (cynomolgus monkey)
Peripheral blood mononuclear cells (PBMC) were isolated from human or cynomolgus monkey whole blood (4 donors each) using density centrifugation through Ficoll-Paque PLUS in SepMate tubes (for human PBMC) or 50 mL conical tubes (for cynomolgus monkey PBMC) and transferred to a fresh conical tube for incubation in Red Blood Cell (RBC) Lysis Buffer. […] After 4 days, activation beads were removed from the culture using a MACSiMAG Separator, and cells were collected and counted.
Flow cytometry was used to evaluate mAb1 binding to human or cynomolgus monkey T-cells in activated PBMC. […] Data were analyzed with Flowio software. For EC₅₀ determinations, measured geometric MFI values were analyzed using a 4-parameter logistic equation over a 12-point response curve with GraphPad Prism.

B1: mAb1 (antibody, human IgG1, kappa, V domains shown)
VH: QVQLQESGPGLVKPSETLSLTCIVSGGSISGYFWNWIRQPPGKGLEWIGYIYYSGTTIYNPSLKSRFTISLDTSKNQFSLKLTSVTAADTAVYYCARESYDPSPRYFDHWGQGTLVTVSS
VL: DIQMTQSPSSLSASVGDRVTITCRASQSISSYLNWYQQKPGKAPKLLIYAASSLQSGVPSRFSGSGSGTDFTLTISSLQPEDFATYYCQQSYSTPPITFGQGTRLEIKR
notes: Human IgG1; N101D variant of CompAb1; also called N101D Variant; N101D
B1 was tested, and the “EC50, ADCC against human primary CD8+ T-cells Donor 0200R, NK Donor 05001” value [1] was 139 pM, the “EC50, ADCC against human primary CD8+ T-cells Donor 0400N, NK Donor 04003” value [1] was 76.4 pM and the “EC50, ADCC against human primary CD8+ T-cells Donor 0400N, NK Donor 05001” value [1] was 116 pM. The “EC50, ADCC against human primary CD8+ T-cells Donor 5100X, NK Donor 04003” value [1] was 128 pM, the “EC50, ADCC against human primary CD8+ T-cells Donor 5100X, NK Donor 05001” value [1] was 95.1 pM and the “EC50, ADCC against human primary Tregs Donor 0200R, NK Donor 04003” value [1] was 39.9 pM. For the same binder, the “EC50, ADCC against human primary Tregs Donor 0200R, NK Donor 05001” value [1] was 64.7 pM, the “EC50, ADCC against human primary Tregs Donor 0400N, NK Donor 04003” value [1] was 37.2 pM and the “EC50, ADCC against human primary Tregs Donor 0400N, NK Donor 05001” value [1] was 44.9 pM. For the same binder, the “EC50, ADCC against human primary Tregs Donor 5100X, NK Donor 04003” value [1] was 88.8 pM, the “EC50, ADCC against human primary Tregs Donor 5100X, NK Donor 05001” value [1] was 83.4 pM and the Kd [2] was 0.104 nM. The t1/2 [2] was 71.7 min, the Kd [3] was 1.18 nM and the t1/2 [3] was 7.58 min. The Kd [4] was 0.0813 nM, the t1/2 [4] was 345 min and the Kd [5] was 14.8 nM. For the same binder, the t1/2 [5] was 7.52 min and the “EC50 (read off the curve)” value [6] was ~4 nM.
